According to paper PMC6379078 (Cell, 2018):
Ends that are not written are not given here. * marks the point of attachment. Biotin = O=C1N[C@H]2[C@H](CS[C@H]2CCCCC(=O)*)N1

Biological target: T1, wheat germ cell extract in vitro translated HA-GLI1 (human, UniProt P08151 1-1106)
T1 sequence (looked up): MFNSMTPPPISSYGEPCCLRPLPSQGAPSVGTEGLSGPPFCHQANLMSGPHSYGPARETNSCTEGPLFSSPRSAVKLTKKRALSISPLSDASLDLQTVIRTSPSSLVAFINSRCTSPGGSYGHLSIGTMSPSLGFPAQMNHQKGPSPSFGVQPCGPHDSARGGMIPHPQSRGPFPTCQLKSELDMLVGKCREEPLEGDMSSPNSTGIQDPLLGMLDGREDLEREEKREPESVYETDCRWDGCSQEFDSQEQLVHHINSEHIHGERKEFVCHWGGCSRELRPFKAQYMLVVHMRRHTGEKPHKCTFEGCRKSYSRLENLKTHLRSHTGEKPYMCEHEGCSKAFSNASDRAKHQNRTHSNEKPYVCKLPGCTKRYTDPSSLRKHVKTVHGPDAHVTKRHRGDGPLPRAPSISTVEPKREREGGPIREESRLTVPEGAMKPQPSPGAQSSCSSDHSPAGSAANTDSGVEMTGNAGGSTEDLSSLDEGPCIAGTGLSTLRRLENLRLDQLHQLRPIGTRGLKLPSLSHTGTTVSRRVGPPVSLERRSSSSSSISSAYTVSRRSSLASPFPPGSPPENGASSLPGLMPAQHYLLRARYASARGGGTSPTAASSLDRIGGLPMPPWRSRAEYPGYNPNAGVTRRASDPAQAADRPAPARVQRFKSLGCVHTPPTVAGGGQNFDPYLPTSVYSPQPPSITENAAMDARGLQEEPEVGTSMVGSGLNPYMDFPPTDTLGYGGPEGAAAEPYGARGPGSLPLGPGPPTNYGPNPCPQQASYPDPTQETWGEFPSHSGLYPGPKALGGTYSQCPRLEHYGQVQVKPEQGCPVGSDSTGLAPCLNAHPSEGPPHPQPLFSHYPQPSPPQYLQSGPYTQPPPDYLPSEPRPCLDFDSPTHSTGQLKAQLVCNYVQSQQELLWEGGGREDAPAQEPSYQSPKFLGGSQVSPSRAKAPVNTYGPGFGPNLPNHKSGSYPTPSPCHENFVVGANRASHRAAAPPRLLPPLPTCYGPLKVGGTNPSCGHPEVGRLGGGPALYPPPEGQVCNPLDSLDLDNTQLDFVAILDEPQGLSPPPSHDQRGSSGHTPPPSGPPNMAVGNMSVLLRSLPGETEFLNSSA
Assay: co-IP

Kd: 8 µM
Binder: Biotin-LEDPSVLTKDKLKSELVANNVTLPAGEQRKDVYVQLYLQHLTAR (peptide, UniProt P42166 5-48, looked up) [biotin-LEM-like domain peptide (residues 5–48)]
